One block for each binder: values may come before it.
Assays:
human FcγRI = target: T1, human FcγRI (human, UniProt P12314 16-288); experiment: binding affinity
T1 chain: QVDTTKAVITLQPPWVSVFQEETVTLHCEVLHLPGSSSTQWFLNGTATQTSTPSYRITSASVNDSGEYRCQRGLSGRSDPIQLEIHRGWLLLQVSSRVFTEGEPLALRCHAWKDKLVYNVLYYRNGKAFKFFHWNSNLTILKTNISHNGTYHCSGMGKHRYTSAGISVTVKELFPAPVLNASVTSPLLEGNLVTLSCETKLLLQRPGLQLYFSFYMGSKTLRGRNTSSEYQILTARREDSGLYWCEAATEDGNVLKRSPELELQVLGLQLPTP

human FcRn protein = human FcRn protein (human, UniProt P55899 24-297; P61769 21-119); experiment: binding affinity; pH 6
[1] = target: human FcγRIIIa, 158F allele (human, UniProt P08637 17-208); experiment: binding affinity
Chain of human FcγRIIIa, 158F allele (P08637 17-208): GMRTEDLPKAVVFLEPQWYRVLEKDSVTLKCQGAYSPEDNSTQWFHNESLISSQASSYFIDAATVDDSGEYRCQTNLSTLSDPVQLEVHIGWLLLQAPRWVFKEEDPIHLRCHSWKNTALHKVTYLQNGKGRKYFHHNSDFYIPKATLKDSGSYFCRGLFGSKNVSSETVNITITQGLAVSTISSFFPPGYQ

human FcγRIIa = target: T2, human FcγRIIa (human, UniProt P12318 36-218); experiment: binding affinity
T2 chain: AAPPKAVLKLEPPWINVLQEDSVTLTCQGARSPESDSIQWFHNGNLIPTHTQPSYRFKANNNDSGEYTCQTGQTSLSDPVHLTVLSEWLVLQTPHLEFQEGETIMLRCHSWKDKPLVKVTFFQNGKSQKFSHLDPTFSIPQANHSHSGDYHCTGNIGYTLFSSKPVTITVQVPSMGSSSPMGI

human FcγRIIb = target: T3, human FcγRIIb (human, UniProt P31994 46-217); experiment: binding affinity
T3 chain: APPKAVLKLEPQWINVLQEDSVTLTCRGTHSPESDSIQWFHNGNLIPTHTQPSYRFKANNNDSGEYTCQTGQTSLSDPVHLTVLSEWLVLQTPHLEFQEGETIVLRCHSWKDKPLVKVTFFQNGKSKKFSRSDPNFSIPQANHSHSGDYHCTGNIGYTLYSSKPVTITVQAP

[2] = target: human FcγRIIIa, 158V allele (human, UniProt P08637 17-208); experiment: binding affinity
Chain of human FcγRIIIa, 158V allele (P08637 17-208 F176V): as the sequence (P08637 17-208) above, with F160V counted along it

Kd (human FcγRI): ~133 nM
Kd (human FcRn protein): 1050 nM
B1: antibody with the C239ins cysteine engineered Fc region (Fc receptor affinity analysis) (antibody)
Fc: APELLGGPSCVFLFPPKPKDTLMISRTPEVTCVVVDVSHEDPEVKFNWYVDGVEVHNAKTKPREEQYNSTYRVVSVLTVLHQDWLNGKEYKCKVSNKALPAPIEKTISKAKGQPREPQVYTLPPSRDELTKNQVSLTCLVKGFYPSDIAVEWESNGQPENNYKTTPPVLDSDGSFFLYSKLTVDKSRWQQGNVFSCSVMHEALHNHYTQKSLSLSPGK

Kd (human FcγRI): ~16 nM
Kd [1]: 5700 nM
Kd (human FcγRIIa): 2540 nM
Kd (human FcγRIIb): 6310 nM
Kd [2]: 1460 nM
Kd (human FcRn protein): 976 nM
B2: antibody with the L234F/S239A/S442C triple mutation (Fc receptor affinity analysis) (antibody)
Fc: APEFLGGPAVFLFPPKPKDTLMISRTPEVTCVVVDVSHEDPEVKFNWYVDGVEVHNAKTKPREEQYNSTYRVVSVLTVLHQDWLNGKEYKCKVSNKALPAPIEKTISKAKGQPREPQVYTLPPSRDELTKNQVSLTCLVKGFYPSDIAVEWESNGQPENNYKTTPPVLDSDGSFFLYSKLTVDKSRWQQGNVFSCSVMHEALHNHYTQKSLCLSPGK

From patent US20210069341A1 (published 2021)
